# Literature values, collected in US20220033450A1, “VIRALLY EXPRESSED INHIBITORS OF PDZ DOMAINS, SUCH AS PICK1 AND USES THEREOF” (University of Copenhagen, priority 2018, published 2022).
# Target: T1, PDZ3 of PSD-95 (Homo sapiens, UniProt P78352)
# T1 construct: specificity towards PDZ3 over PDZ 1 and 2 in PSD-95 (Toto et al. 2016)
# Conditions: Toto et al. 2016; 'supposedly'
# T1 sequence (P78352 313-393 limits assumed): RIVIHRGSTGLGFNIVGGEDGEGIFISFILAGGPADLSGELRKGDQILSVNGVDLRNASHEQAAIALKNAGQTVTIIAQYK
substance,measurement,value
YKQTSV,specificity towards PDZ3 over PDZ 1 and 2 in PSD-95,> 15 fold
